Several values for one entry are separate records, joined by “and”; a condition that tells them apart may be missing. Equal entries are not always repeated.
Legend:
[1] = target: CTLA-4Fc mutant protein M3 (human (murine residues substituted)); test: ELISA; binder 1000 ng/ml on coated target
[2] = target: CTLA-4Fc mutant protein M10 (human (murine residues substituted)); test: ELISA; binder 1000 ng/ml on coated target
[3] = target: CTLA-4Fc mutant protein M11 (human (murine residues substituted)); test: ELISA; binder 1000 ng/ml on coated target
[4] = target: wild type human CTLA-4Fc fusion protein (abatacept) (human); test: ELISA; binder 1000 ng/ml on coated target
[5] = target: CTLA-4Fc mutant protein M5 (human (murine residues substituted)); test: ELISA; binder 1000 ng/ml on coated target
[6] = target: CTLA-4Fc mutant protein M3 (human (murine residues substituted)); test: ELISA; binder 100 ng/ml on coated target
[7] = target: CTLA-4Fc mutant protein M7 (human (murine residues substituted)); test: ELISA; binder 100 ng/ml on coated target
[8] = target: CTLA-4Fc mutant protein M10 (human (murine residues substituted)); test: ELISA; binder 100 ng/ml on coated target
[9] = target: CTLA-4Fc mutant protein M1 (human (murine residues substituted)); test: ELISA; binder 100 ng/ml on coated target
[10] = target: CTLA-4Fc mutant protein M4 (human (murine residues substituted)); test: ELISA; binder 100 ng/ml on coated target
[11] = target: CTLA-4Fc mutant protein M2 (human (murine residues substituted)); test: ELISA; binder 100 ng/ml on coated target
[12] = target: CTLA-4Fc mutant protein M11 (human (murine residues substituted)); test: ELISA; binder 100 ng/ml on coated target
[13] = target: wild type human CTLA-4Fc fusion protein (abatacept) (human); test: ELISA; binder 100 ng/ml on coated target
[14] = target: CTLA-4Fc mutant protein M9 (human (murine residues substituted)); test: ELISA; binder 100 ng/ml on coated target
[15] = target: CTLA-4Fc mutant protein M6 (human (murine residues substituted)); test: ELISA; binder 100 ng/ml on coated target
[16] = target: CTLA-4Fc mutant protein M5 (human (murine residues substituted)); test: ELISA; binder 100 ng/ml on coated target
mouse CTLA-4-Fc (mouse) = mouse CTLA-4-Fc (mouse) (UniProt P09793); test: ELISA; binder 100 ng/ml on coated target
[17] = target: CTLA-4Fc mutant protein M8 (human (murine residues substituted)); test: ELISA; binder 100 ng/ml on coated target
[18] = target: human IgG1-Fc control (human) [IgG part: P01857]; test: ELISA; binder 100 ng/ml on coated target

Sequence of CTLA-4Fc mutant protein M5 (human (murine residues substituted)) (chain, as listed by the source mutant): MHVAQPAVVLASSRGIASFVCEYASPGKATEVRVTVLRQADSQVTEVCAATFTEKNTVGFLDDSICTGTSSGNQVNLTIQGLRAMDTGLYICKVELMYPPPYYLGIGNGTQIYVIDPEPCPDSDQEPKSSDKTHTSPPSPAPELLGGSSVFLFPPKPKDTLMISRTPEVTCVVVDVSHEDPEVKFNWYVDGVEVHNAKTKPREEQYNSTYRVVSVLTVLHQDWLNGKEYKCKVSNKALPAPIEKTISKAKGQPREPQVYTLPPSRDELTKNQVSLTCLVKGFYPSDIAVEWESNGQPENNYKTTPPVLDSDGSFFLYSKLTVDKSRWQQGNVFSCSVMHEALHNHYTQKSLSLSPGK
Sequence of CTLA-4Fc mutant protein M11 (human (murine residues substituted)) (chain, as listed by the source mutant): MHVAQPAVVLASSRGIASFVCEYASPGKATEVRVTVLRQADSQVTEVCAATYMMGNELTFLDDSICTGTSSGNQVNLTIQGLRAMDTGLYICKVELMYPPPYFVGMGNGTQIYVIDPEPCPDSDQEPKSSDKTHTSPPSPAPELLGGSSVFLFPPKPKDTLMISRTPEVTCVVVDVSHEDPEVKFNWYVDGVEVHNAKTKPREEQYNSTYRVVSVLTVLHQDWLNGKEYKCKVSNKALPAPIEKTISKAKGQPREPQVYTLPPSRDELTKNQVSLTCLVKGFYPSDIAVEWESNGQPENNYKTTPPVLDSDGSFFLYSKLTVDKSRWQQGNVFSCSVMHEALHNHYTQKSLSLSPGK
Sequence of wild type human CTLA-4Fc fusion protein (abatacept) (human) (chain, as listed by the source limits assumed): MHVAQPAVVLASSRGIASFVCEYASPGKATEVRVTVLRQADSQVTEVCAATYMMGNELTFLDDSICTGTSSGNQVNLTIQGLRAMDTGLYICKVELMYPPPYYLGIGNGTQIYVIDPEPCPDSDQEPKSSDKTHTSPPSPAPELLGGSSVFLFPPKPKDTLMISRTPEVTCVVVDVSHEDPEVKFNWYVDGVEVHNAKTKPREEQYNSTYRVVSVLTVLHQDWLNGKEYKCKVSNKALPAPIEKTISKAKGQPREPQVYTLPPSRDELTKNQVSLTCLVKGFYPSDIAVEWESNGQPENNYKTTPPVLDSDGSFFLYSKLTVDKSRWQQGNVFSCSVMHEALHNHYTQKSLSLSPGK
Sequence of CTLA-4Fc mutant protein M10 (human (murine residues substituted)) (chain, as listed by the source mutant): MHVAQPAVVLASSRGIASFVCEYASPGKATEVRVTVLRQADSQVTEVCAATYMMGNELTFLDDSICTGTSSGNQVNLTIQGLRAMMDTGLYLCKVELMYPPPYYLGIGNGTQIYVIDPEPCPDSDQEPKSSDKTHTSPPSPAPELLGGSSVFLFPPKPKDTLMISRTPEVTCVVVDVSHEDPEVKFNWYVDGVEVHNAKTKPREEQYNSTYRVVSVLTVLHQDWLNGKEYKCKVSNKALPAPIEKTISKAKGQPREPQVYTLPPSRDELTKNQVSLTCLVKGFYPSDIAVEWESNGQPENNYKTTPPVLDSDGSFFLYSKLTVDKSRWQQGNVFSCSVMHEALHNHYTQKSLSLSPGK
Sequence of CTLA-4Fc mutant protein M3 (human (murine residues substituted)) (chain, as listed by the source mutant): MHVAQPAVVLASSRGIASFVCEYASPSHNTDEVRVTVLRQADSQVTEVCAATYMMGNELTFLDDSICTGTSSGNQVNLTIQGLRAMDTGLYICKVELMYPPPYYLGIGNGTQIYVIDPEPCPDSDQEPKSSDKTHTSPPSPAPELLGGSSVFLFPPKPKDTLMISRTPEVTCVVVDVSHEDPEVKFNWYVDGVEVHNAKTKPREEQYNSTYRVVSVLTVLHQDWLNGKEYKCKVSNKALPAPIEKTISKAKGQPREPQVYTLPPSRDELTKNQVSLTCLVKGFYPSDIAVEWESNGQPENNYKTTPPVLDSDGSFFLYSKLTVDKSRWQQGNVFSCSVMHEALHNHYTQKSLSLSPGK
Sequence of CTLA-4Fc mutant protein M2 (human (murine residues substituted)) (chain, as listed by the source mutant): as the sequence (chain, as listed by the source limits assumed) above, with R14H, I16L, V20P counted along it
Sequence of mouse CTLA-4-Fc (mouse) (P09793 36-161 limits assumed): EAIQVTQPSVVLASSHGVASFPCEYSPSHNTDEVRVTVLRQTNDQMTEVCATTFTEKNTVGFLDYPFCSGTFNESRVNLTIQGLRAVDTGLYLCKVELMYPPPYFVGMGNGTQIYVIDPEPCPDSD
Sequence of CTLA-4Fc mutant protein M1 (human (murine residues substituted)) (chain, as listed by the source mutant): as the sequence (chain, as listed by the source limits assumed) above, with M1I, H2Q, A4T, A7S counted along it
Sequence of CTLA-4Fc mutant protein M8 (human (murine residues substituted)) (chain, as listed by the source mutant): as the sequence (chain, as listed by the source limits assumed) above, with S70F, S71N, G72E, N73S, Q74R counted along it
Sequence of CTLA-4Fc mutant protein M4 (human (murine residues substituted)) (chain, as listed by the source mutant): as the sequence (chain, as listed by the source limits assumed) above, with Q39T, A40N, S42Q, Q43M counted along it
Sequence of CTLA-4Fc mutant protein M9 (human (murine residues substituted)) (chain, as listed by the source mutant): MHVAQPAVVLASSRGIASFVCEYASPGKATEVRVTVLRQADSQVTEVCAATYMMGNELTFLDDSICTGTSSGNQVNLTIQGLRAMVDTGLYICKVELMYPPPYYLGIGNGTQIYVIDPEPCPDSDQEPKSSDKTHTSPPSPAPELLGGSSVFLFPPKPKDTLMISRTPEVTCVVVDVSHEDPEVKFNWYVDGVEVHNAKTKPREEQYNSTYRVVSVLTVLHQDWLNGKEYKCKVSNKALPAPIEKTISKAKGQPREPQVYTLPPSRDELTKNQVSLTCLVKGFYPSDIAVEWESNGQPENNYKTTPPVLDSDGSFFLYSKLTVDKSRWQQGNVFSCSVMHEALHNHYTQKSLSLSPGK
Sequence of CTLA-4Fc mutant protein M7 (human (murine residues substituted)) (chain, as listed by the source mutant): as the sequence (chain, as listed by the source limits assumed) above, with D63Y, S64P, I65F, T67S counted along it
Sequence of CTLA-4Fc mutant protein M6 (human (murine residues substituted)) (chain, as listed by the source mutant): as the sequence (chain, as listed by the source limits assumed) above, with A50T counted along it

OD450 [1]: 3.33 OD450 and 3.3 OD450
OD450 [2]: 0.945 OD450 and 0.941 OD450
OD450 [3]: 2.89 OD450 and 2.91 OD450
OD450 [4]: 3.57 OD450 and 3.67 OD450
OD450 [5]: 3.41 OD450 and 3.54 OD450
OD450 [6]: 2.24 OD450 and 2.54 OD450
OD450 [7]: 2.67 OD450 and 2.88 OD450
OD450 [8]: 0.26 OD450 and 0.272 OD450
OD450 [9]: 3.19 OD450 and 3.57 OD450
OD450 [10]: 2.23 OD450 and 2.36 OD450
OD450 [11]: 1.31 OD450 and 1.37 OD450
OD450 [12]: 0.752 OD450 and 0.746 OD450
OD450 [13]: 3.32 OD450 and 3.46 OD450
OD450 [14]: 0.419 OD450 and 0.346 OD450
OD450 [15]: 3.03 OD450
OD450 [16]: 3.25 OD450 and 3.32 OD450
OD450 (mouse CTLA-4-Fc (mouse)): 0.303 OD450 and 0.314 OD450
OD450 [17]: 3.02 OD450 and 3.16 OD450
OD450 [18]: 0.315 OD450 and 0.326 OD450
Substance: chimeric L3D10 anti-human CTLA-4 antibody

Reference: patent publication US20190263889A1
